Patent US11835506 (RADIUS HEALTH, dated 2023)

Target: PTH receptors
Test: cell-based or functional assay

EC50, production of cAMP in a cell base potency assay for functional PTH activity [ng/mL]	Binder
3.3	AVSEHQLLHXKGKSIQDLRRRELLEKLLXKLHTA (beta-Asp at position 10; Aib (2-aminoisobutyric acid) at position 29; C-terminal amide (NH2)) [(beta-Asp10) abaloparatide ([b-Asp10, Glu22,25, Leu23,28,31, Aib29, Lys26,30]hPTHrP(1-34)NH2)]
0.325	AVSEHQLLHDKGKSIQDLRRRELLEKLLXKLHTA (Aib (2-aminoisobutyric acid) at position 29; C-terminal amide (NH2)) [abaloparatide ([Glu22,25, Leu23,28,31, Aib29, Lys26,30]hPTHrP(1-34)NH2)]
